B1: ARS (dsDNA)
DNA 1: TCTCCACCCCGCCTCCCCCCACCCTGCCTT
DNA 2: AAGGCAGGGTGGGGGGAGGCGGGGTGGAGA
B2: Sp1-3 (dsDNA)
DNA 1: TTCTCCCCACCCGCCCCCCCGCCCCCGTCG
DNA 2: CGACGGGGGCGGGGGGGCGGGTGGGGAGAA
B3: Sp1-1 (dsDNA)
DNA 1: CGGCCCGGTGGGGGCGGGACCCGACTCGCA
DNA 2: TGCGAGTCGGGTCCCGCCCCCACCGGGCCG

Target: Sp1 (purified recombinant) (Homo sapiens, UniProt P08047 1-785)
Assay: EMSA; EMSA: 10 ug nuclear extract or 120 nM Sp1, 20 fmol biotin probe; binding buffer per earlier paper (not given); 6% native PAGE, 0.5x TBE pH 8.3, cooled gel. pur-alpha bands not listed: antibody had no effect, protein not identified in extract.
Settings: label: 3' biotin, blunt

Chain of Sp1 (purified recombinant) (P08047 whole entry): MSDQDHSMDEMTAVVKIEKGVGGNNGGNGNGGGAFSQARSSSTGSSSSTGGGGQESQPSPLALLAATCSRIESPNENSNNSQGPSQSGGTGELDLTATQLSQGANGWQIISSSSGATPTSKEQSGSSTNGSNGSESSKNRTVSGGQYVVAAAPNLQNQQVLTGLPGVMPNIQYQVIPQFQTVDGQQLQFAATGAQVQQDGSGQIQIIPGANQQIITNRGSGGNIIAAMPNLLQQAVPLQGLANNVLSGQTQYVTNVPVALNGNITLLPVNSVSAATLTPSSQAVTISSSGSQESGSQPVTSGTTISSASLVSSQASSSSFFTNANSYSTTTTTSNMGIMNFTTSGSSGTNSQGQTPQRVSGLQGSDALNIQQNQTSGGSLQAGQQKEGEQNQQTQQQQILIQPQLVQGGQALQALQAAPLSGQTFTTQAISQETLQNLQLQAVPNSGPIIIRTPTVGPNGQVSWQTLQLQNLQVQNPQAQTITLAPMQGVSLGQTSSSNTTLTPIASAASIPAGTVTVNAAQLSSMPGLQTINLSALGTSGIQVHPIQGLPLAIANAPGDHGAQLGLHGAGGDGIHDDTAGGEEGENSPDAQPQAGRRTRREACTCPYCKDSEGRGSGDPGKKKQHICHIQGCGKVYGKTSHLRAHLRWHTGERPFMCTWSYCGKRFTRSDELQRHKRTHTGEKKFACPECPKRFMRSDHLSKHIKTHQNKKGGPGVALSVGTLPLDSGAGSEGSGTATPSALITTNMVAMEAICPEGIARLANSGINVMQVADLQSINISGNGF

| Binder | binding result |
| --- | --- |
| B1 | binds |
| B2 | binds |
| B3 | binds |

Reference: article PMC4598089, “An Sp1 Modulated Regulatory Region Unique to Higher Primates Regulates Human Androgen Receptor Promoter Activity in Prostate Cancer Cells”
